{"source": "paper PMC9601230", "about": "(mBio, 2022)", "binders": {"B1": {"name": "mobile HJ (HJ31) (structured_DNA)", "DNA 1": "GCTAGCCACAGCCATTCGTACGATTGCGGGA", "DNA 2": "TCCCGCAATCGTACGAAACCGAGCACGATCT", "DNA 3": "AGATCGTGCTCGGTTTCGTACCAGATGCCAT", "DNA 4": "ATGGCATCTGGTACGAATGGCTGTGGCTAGC"}, "B2": {"name": "immobile HJ (structured_DNA)", "DNA 1": "B1 DNA 1", "DNA 2": "TCCCGCAATCGTCCGTTTCCGAGCACGATCT", "DNA 3": "AGATCGTGCTCGGAAAGCCTGCAGATGCCAT", "DNA 4": "ATGGCATCTGCAGGCAATGGCTGTGGCTAGC"}, "B3": {"name": "replication fork (structured_DNA)", "DNA 1": "B1 DNA 1", "DNA 2": "B2 DNA 2", "DNA 3": "AGATCGTGCTCGGAAA", "DNA 4": "AATGGCTGTGGCTAGC"}, "B4": {"name": "Y-junction (structured_DNA)", "DNA 1": "B1 DNA 1", "DNA 2": "B2 DNA 2", "DNA 3": "AGATCGTGCTCGGAAAAATGGCTGTGGCTAGC"}, "B5": {"name": "nicked duplex (dsDNA)", "DNA 1": "B1 DNA 1", "DNA 2": "TCCCGCAATCGTACG", "DNA 3": "AATGGCTGTGGCTAGC"}, "B6": {"name": "nicked HJ (structured_DNA)", "DNA 1": "B1 DNA 1", "DNA 2": "B2 DNA 2", "DNA 3": "AGATCGTGCTCGGAAA", "DNA 4": "GCCTGCAGATGCCAT", "DNA 5": "B2 DNA 4"}, "B7": {"name": "RuvC from Deinococcus radiodurans (enzyme, UniProt Q9RX75 1-179, looked up)", "chain": "MRVLGIDPGLANLGLGLVEGDVRRAKHLYHVCLTTESAWLMPRRLQYLHEELTRLLTEYRPDAVAIEDQILRRQADVAFKVGQAFGVVQLACAQAGVPIHAYGPMQVKKSLVGTGRADKEQVIYMVKASLGIRELFNNHAADALALALTHLAHAPMQERSERLAAAGRAARTGDAPLRR", "notes": "Holliday junction resolvase RuvC, Deinococcus radiodurans, full-length gene, residues 1 to 179, amplified from genomic DNA; Expressed from pET28-HMT (His-MBP-TEV); tag removed with TEV protease, so residues of the TEV site may be left at the N-terminus; also called DrRuvC; dr0440; source: E. coli Rossetta (DE3), purified (HisTrap, TEV cleavage, HisTrap, Heparin, Superdex 75); not shown: His6, …"}}, "key": {"DrRuvC [1]": {"biological_target": "T1, DrRuvC (Deinococcus radiodurans, UniProt Q9RX75 1-179)", "T1 sequence": "B7 chain", "test": "EMSA; EMSA: 100 nM 6-FAM substrate, 50 mM Tris-HCl pH 8.0, 125 mM NaCl, 10 ug/mL BSA, 1 mM TCEP, 5% glycerol, 30 C 10 min; 5% native PAGE in 0.5x Tris-borate", "conditions": "protein: recombinant, tags: N-terminal His-MBP-TEV, removed by TEV, chain copies: 2, label: 5'-6-FAM on J31-1"}, "DrRuvC [2]": {"biological_target": "T1, DrRuvC", "test": "EMSA; no obvious specific complex band; EMSA: 100 nM 6-FAM substrate, 50 mM Tris-HCl pH 8.0, 125 mM NaCl, 10 ug/mL BSA, 1 mM TCEP, 5% glycerol, 30 C 10 min; 5% native PAGE in 0.5x Tris-borate", "conditions": "protein: recombinant; tags: N-terminal His-MBP-TEV, removed by TEV; chain copies: 2; label: 5'-6-FAM on J31-1; blunt, nick between J31-5 and J31-7"}, "[3]": {"biological_target": "the molecule itself", "test": "SEC; analytical Superdex 75 10/300GL, 0.3 mL/min, 20 mM Tris pH 8.0, 200 mM NaCl, 0.5 mM TCEP; 100 uL of protein at 2 mg/mL loaded; calibrated with protein standards"}}, "data": [{"binder": "B1", "values": [{"measurement": "Kd", "setting": "DrRuvC [1]; four-way junction with mobile homologous core, 4 strands", "value": "~150", "unit": "nM"}]}, {"binder": "B2", "values": [{"measurement": "Kd", "setting": "DrRuvC [1]; four-way junction, 4 strands", "value": "~150", "unit": "nM"}]}, {"binder": "B3", "values": [{"measurement": "Kd", "setting": "DrRuvC [1]; three-way junction with nick at junction, 4 strands", "value": "~410", "unit": "nM"}]}, {"binder": "B4", "values": [{"measurement": "Kd", "setting": "DrRuvC [1]; three-way junction, 3 strands", "value": "~425", "unit": "nM"}]}, {"binder": "B5", "values": [{"measurement": "Kd", "setting": "DrRuvC [2]", "value": "~408", "unit": "nM"}]}, {"binder": "B6", "values": [{"measurement": "Kd", "setting": "DrRuvC [1]; 3'-OH and 5'-OH at nick, four-way junction, nick in strand opposite J31-1, 5 strands", "value": "~150", "unit": "nM"}]}, {"binder": "B7", "values": [{"measurement": "stoichiometry N", "setting": "[3]", "value": 2}]}]}
